Experimental data: patent publication US20200255483A1

Experiments:
[1] = target: diphtheria toxin receptor (heparin-binding epidermal growth factor-like growth factor, HB-EGF) on Vero cells (UniProt Q09118); test: cell-based or functional assay
[2] = target: RAS proteins (endogenous, in cells); test: cell-based or functional assay

Substance	EC50 of inhibition of protein synthesis (3H-leucine incorporation) in Vero cells, in the presence of 1 nM nontoxic DT [1]	EC50 of inhibition of protein synthesis (3H-leucine incorporation) in Vero cells, without competitor [1]	EC50 of loss of RAS proteins in HeLa cells (immunoblot) [2]	potency of RAS loss in HeLa cells against RRSP-dta-dtB [2]	EC50 of loss of total RAS proteins in HeLa cells after 24 h (immunoblot with anti-RAS antibody) [2]
dtA-eGFP-dta-dtB	215 pM	3.8 pM			
RRSP-Δdta-dtB (enzyme)			1 pM	300 fold	
RRSP-dta-dtB (enzyme)					250 pM
RRSP-APD-Δdta-dtB (enzyme)			1 pM	300 fold	
